# Source: patent publication US20230192815A1
# Key:
# [1] = target: Canine parvovirus CPV-2c (TS02 strain), purified virus (canine parvovirus CPV-2c, TS02 strain); assay: indirect ELISA, purified CPV coated, serum dilution 1:25000; control of the third immunization serum
# [2] = target: Canine parvovirus CPV-2c (TS02 strain), purified virus (canine parvovirus CPV-2c, TS02 strain); assay: indirect ELISA, purified CPV coated, serum dilution 1:5000; control of the third immunization serum
# [3] = target: Canine parvovirus CPV-2c (TS02 strain), purified virus (canine parvovirus CPV-2c, TS02 strain); assay: indirect ELISA, purified CPV coated, serum dilution 1:1000; control of the third immunization serum
# [4] = target: Canine parvovirus CPV-2c (TS02 strain), purified virus (canine parvovirus CPV-2c, TS02 strain); assay: indirect ELISA, purified CPV coated, serum dilution 1:5000; control of the fourth immunization serum
# [5] = target: Canine parvovirus CPV-2c (TS02 strain), purified virus (canine parvovirus CPV-2c, TS02 strain); assay: indirect ELISA, purified CPV coated, serum dilution printed 1:1250000 (text: 125,000 times); control of the third immunization serum
# [6] = target: Canine parvovirus CPV-2c (TS02 strain), purified virus (canine parvovirus CPV-2c, TS02 strain); assay: indirect ELISA, purified CPV coated, serum dilution 1:1000; control of the fourth immunization serum
# [7] = target: Canine parvovirus CPV-2c (TS02 strain), purified virus (canine parvovirus CPV-2c, TS02 strain); assay: indirect ELISA, purified CPV coated, serum dilution printed 1:1250000 (text: 125,000 times); control of the fourth immunization serum
# [8] = target: Canine parvovirus CPV-2c (TS02 strain), purified virus (canine parvovirus CPV-2c, TS02 strain); assay: indirect ELISA, purified CPV coated, serum dilution 1:25000; control of the fourth immunization serum
# [9] = target: Canine parvovirus CPV-2c (TS02 strain), purified virus (canine parvovirus CPV-2c, TS02 strain); assay: indirect ELISA, purified CPV coated, nanobody dilution 1:100, anti-His-HRP
# [10] = target: Canine parvovirus CPV-2c (TS02 strain), purified virus (canine parvovirus CPV-2c, TS02 strain); assay: indirect ELISA, purified CPV coated, nanobody dilution 1:10, anti-His-HRP
# [11] = target: Canine parvovirus CPV-2c (TS02 strain), purified virus (canine parvovirus CPV-2c, TS02 strain); assay: cell-based or functional assay
# [12] = target: Canine parvovirus CPV-2c (TS02 strain), purified virus (canine parvovirus CPV-2c, TS02 strain); assay: indirect ELISA, purified CPV coated, nanobody dilution 1:1000, anti-His-HRP
# [13] = target: Canine parvovirus CPV-2c (TS02 strain), purified virus (canine parvovirus CPV-2c, TS02 strain); assay: indirect ELISA, purified CPV coated, nanobody dilution 1:10000, anti-His-HRP
Molecule,mean OD450 nm [1] [OD450 nm],mean OD450 nm [2] [OD450 nm],mean OD450 nm [3] [OD450 nm],mean OD450 nm [4] [OD450 nm],mean OD450 nm [5] [OD450 nm],mean OD450 nm [6] [OD450 nm],mean OD450 nm [7] [OD450 nm],mean OD450 nm [8] [OD450 nm],mean OD450 nm [9] [OD450 nm],mean OD450 nm [10] [OD450 nm],"neutralization titer (CPV neutralization assay, CPE on CRFK cells) (titer (1:x dilution)) [11]",mean OD450 nm [12] [OD450 nm],mean OD450 nm [13] [OD450 nm]
Negative serum of non-immunized alpaca,0.048,0.071,0.158,0.16,0.044,0.371,0.067,0.083,,,,,
CPV nanobody CPV-VHH-H1 (VHH) VHH: QVQLVESGGGLAQPGGSLRLSCAASGAIDSISAMRWFRQPPGKQRAVVASITSDGVTTYADSVKGRFTISRDNAENTLYLQMNSLKTEDTGVYYCYAALKGYSSGVVAASWGQGTQVTVSG,,,,,,,,,2.46,2.56,< 10,0.28,0.1
